Data: PMC8866124, “Visualizing protein breathing motions associated with aromatic ring flipping” (Nature, 2022)

Target: the molecule itself
Test: crystal structure; wild-type JIP1-SH3 at 20 mg/ml; crystals in 0.1 M HEPES pH 7.5, 1-5% PEG 400, 2-2.5 M ammonium sulfate, 20 °C, hanging drop; molecular replacement with PDB 2FPE chains A-B

B1: SH3 domain of the JNK-interacting protein 1 (JIP1), wild type (domain or fragment, human)
chain: GHMEQTHRAIFRFVPRHEDELELEVDDPLLVELQAEDYWYEAYNMRTGARGVFPAYYAIEVTK
notes: N-terminal extension left on the protein after cleavage by the TEV protease; Called dimeric in the legends; The wild-type structure was solved by molecular replacement with chains A-B of PDB 2FPE; also called JIP1-SH3; JIP1-SH3(WT); not shown: His6, N-terminal, cleaved
  binding result: binds
